Patent US20210388087A1 (Chugai, published 2021)

Target: T1, Human CD137 ECD (human)
T1 construct: entry includes C-terminal His-tag and biotin acceptor peptide; also called human CD137 extracellular domain; 4-1BB
Assay: Biacore SPR, vs parent H183/L072

T1 sequence (chain, as listed by the source limits assumed): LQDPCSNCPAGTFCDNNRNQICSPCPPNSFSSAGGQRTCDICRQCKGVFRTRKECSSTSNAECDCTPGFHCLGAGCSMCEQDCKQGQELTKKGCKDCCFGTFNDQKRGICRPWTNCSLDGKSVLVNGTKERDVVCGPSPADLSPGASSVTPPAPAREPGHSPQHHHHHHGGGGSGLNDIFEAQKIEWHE

fold change of affinity	Binder
0.6 fold	H183/L072 VL T97A (antibody, name in Kabat numbering, V domains shown, Dual-Ig) VH: QVQLVESGGGLVQPGRSLRLSCAASGFTFSNAWMHWVRQAPGKGLEWVAQIKDKGNAYAAYYAPSVKGRFTISRDDSKNSIYLQMNSLKTEDTAVYYCHYVHYASASTVLPAFGVDAWGQGTTVTVSS VL: DIVMTQSPLSLPVTPGEPASISCQASQELVHMNRNTYLHWYQQKPGQAPRLLIYKVSNRFPGVPDRFSGSGSGTDFTLKISRVEAEDVGVYYCAQGTSVPFAFGQGTKLEIK
0 fold	H183/L072 VL T97D (antibody, name in Kabat numbering, V domains shown, Dual-Ig) VH: QVQLVESGGGLVQPGRSLRLSCAASGFTFSNAWMHWVRQAPGKGLEWVAQIKDKGNAYAAYYAPSVKGRFTISRDDSKNSIYLQMNSLKTEDTAVYYCHYVHYASASTVLPAFGVDAWGQGTTVTVSS VL: DIVMTQSPLSLPVTPGEPASISCQASQELVHMNRNTYLHWYQQKPGQAPRLLIYKVSNRFPGVPDRFSGSGSGTDFTLKISRVEAEDVGVYYCAQGTSVPFDFGQGTKLEIK
0.4 fold	H183/L072 VL T97E (antibody, name in Kabat numbering, V domains shown, Dual-Ig) VH: QVQLVESGGGLVQPGRSLRLSCAASGFTFSNAWMHWVRQAPGKGLEWVAQIKDKGNAYAAYYAPSVKGRFTISRDDSKNSIYLQMNSLKTEDTAVYYCHYVHYASASTVLPAFGVDAWGQGTTVTVSS VL: DIVMTQSPLSLPVTPGEPASISCQASQELVHMNRNTYLHWYQQKPGQAPRLLIYKVSNRFPGVPDRFSGSGSGTDFTLKISRVEAEDVGVYYCAQGTSVPFEFGQGTKLEIK
0.9 fold	H183/L072 VL T97R (antibody, name in Kabat numbering, V domains shown, Dual-Ig) VH: QVQLVESGGGLVQPGRSLRLSCAASGFTFSNAWMHWVRQAPGKGLEWVAQIKDKGNAYAAYYAPSVKGRFTISRDDSKNSIYLQMNSLKTEDTAVYYCHYVHYASASTVLPAFGVDAWGQGTTVTVSS VL: DIVMTQSPLSLPVTPGEPASISCQASQELVHMNRNTYLHWYQQKPGQAPRLLIYKVSNRFPGVPDRFSGSGSGTDFTLKISRVEAEDVGVYYCAQGTSVPFRFGQGTKLEIK
0.6 fold	H183/L072 VL T97G (antibody, name in Kabat numbering, V domains shown, Dual-Ig) VH: QVQLVESGGGLVQPGRSLRLSCAASGFTFSNAWMHWVRQAPGKGLEWVAQIKDKGNAYAAYYAPSVKGRFTISRDDSKNSIYLQMNSLKTEDTAVYYCHYVHYASASTVLPAFGVDAWGQGTTVTVSS VL: DIVMTQSPLSLPVTPGEPASISCQASQELVHMNRNTYLHWYQQKPGQAPRLLIYKVSNRFPGVPDRFSGSGSGTDFTLKISRVEAEDVGVYYCAQGTSVPFGFGQGTKLEIK
1.1 fold	H183/L072 VL T97M (antibody, name in Kabat numbering, V domains shown, Dual-Ig) VH: QVQLVESGGGLVQPGRSLRLSCAASGFTFSNAWMHWVRQAPGKGLEWVAQIKDKGNAYAAYYAPSVKGRFTISRDDSKNSIYLQMNSLKTEDTAVYYCHYVHYASASTVLPAFGVDAWGQGTTVTVSS VL: DIVMTQSPLSLPVTPGEPASISCQASQELVHMNRNTYLHWYQQKPGQAPRLLIYKVSNRFPGVPDRFSGSGSGTDFTLKISRVEAEDVGVYYCAQGTSVPFMFGQGTKLEIK
1.3 fold	H183/L072 VL T97I (antibody, name in Kabat numbering, V domains shown, Dual-Ig) VH: QVQLVESGGGLVQPGRSLRLSCAASGFTFSNAWMHWVRQAPGKGLEWVAQIKDKGNAYAAYYAPSVKGRFTISRDDSKNSIYLQMNSLKTEDTAVYYCHYVHYASASTVLPAFGVDAWGQGTTVTVSS VL: DIVMTQSPLSLPVTPGEPASISCQASQELVHMNRNTYLHWYQQKPGQAPRLLIYKVSNRFPGVPDRFSGSGSGTDFTLKISRVEAEDVGVYYCAQGTSVPFIFGQGTKLEIK
0.3 fold	H183/L072 VL T97F (antibody, name in Kabat numbering, V domains shown, Dual-Ig) VH: QVQLVESGGGLVQPGRSLRLSCAASGFTFSNAWMHWVRQAPGKGLEWVAQIKDKGNAYAAYYAPSVKGRFTISRDDSKNSIYLQMNSLKTEDTAVYYCHYVHYASASTVLPAFGVDAWGQGTTVTVSS VL: DIVMTQSPLSLPVTPGEPASISCQASQELVHMNRNTYLHWYQQKPGQAPRLLIYKVSNRFPGVPDRFSGSGSGTDFTLKISRVEAEDVGVYYCAQGTSVPFFFGQGTKLEIK
1.1 fold	H183/L072 VL T97K (antibody, name in Kabat numbering, V domains shown, Dual-Ig) VH: QVQLVESGGGLVQPGRSLRLSCAASGFTFSNAWMHWVRQAPGKGLEWVAQIKDKGNAYAAYYAPSVKGRFTISRDDSKNSIYLQMNSLKTEDTAVYYCHYVHYASASTVLPAFGVDAWGQGTTVTVSS VL: DIVMTQSPLSLPVTPGEPASISCQASQELVHMNRNTYLHWYQQKPGQAPRLLIYKVSNRFPGVPDRFSGSGSGTDFTLKISRVEAEDVGVYYCAQGTSVPFKFGQGTKLEIK
0.6 fold	H183/L072 VL V27cF (antibody, name in Kabat numbering, V domains shown, Dual-Ig) VH: QVQLVESGGGLVQPGRSLRLSCAASGFTFSNAWMHWVRQAPGKGLEWVAQIKDKGNAYAAYYAPSVKGRFTISRDDSKNSIYLQMNSLKTEDTAVYYCHYVHYASASTVLPAFGVDAWGQGTTVTVSS VL: DIVMTQSPLSLPVTPGEPASISCQASQELFHMNRNTYLHWYQQKPGQAPRLLIYKVSNRFPGVPDRFSGSGSGTDFTLKISRVEAEDVGVYYCAQGTSVPFTFGQGTKLEIK
1 fold	H183/L072 VL T97V (antibody, name in Kabat numbering, V domains shown, Dual-Ig) VH: QVQLVESGGGLVQPGRSLRLSCAASGFTFSNAWMHWVRQAPGKGLEWVAQIKDKGNAYAAYYAPSVKGRFTISRDDSKNSIYLQMNSLKTEDTAVYYCHYVHYASASTVLPAFGVDAWGQGTTVTVSS VL: DIVMTQSPLSLPVTPGEPASISCQASQELVHMNRNTYLHWYQQKPGQAPRLLIYKVSNRFPGVPDRFSGSGSGTDFTLKISRVEAEDVGVYYCAQGTSVPFVFGQGTKLEIK
0.5 fold	H183/L072 VL T97N (antibody, name in Kabat numbering, V domains shown, Dual-Ig) VH: QVQLVESGGGLVQPGRSLRLSCAASGFTFSNAWMHWVRQAPGKGLEWVAQIKDKGNAYAAYYAPSVKGRFTISRDDSKNSIYLQMNSLKTEDTAVYYCHYVHYASASTVLPAFGVDAWGQGTTVTVSS VL: DIVMTQSPLSLPVTPGEPASISCQASQELVHMNRNTYLHWYQQKPGQAPRLLIYKVSNRFPGVPDRFSGSGSGTDFTLKISRVEAEDVGVYYCAQGTSVPFNFGQGTKLEIK
0.3 fold	H183/L072 VL V27cD (antibody, name in Kabat numbering, V domains shown, Dual-Ig) VH: QVQLVESGGGLVQPGRSLRLSCAASGFTFSNAWMHWVRQAPGKGLEWVAQIKDKGNAYAAYYAPSVKGRFTISRDDSKNSIYLQMNSLKTEDTAVYYCHYVHYASASTVLPAFGVDAWGQGTTVTVSS VL: DIVMTQSPLSLPVTPGEPASISCQASQELDHMNRNTYLHWYQQKPGQAPRLLIYKVSNRFPGVPDRFSGSGSGTDFTLKISRVEAEDVGVYYCAQGTSVPFTFGQGTKLEIK
0.7 fold	H183/L072 VL V27cE (antibody, name in Kabat numbering, V domains shown, Dual-Ig) VH: QVQLVESGGGLVQPGRSLRLSCAASGFTFSNAWMHWVRQAPGKGLEWVAQIKDKGNAYAAYYAPSVKGRFTISRDDSKNSIYLQMNSLKTEDTAVYYCHYVHYASASTVLPAFGVDAWGQGTTVTVSS VL: DIVMTQSPLSLPVTPGEPASISCQASQELEHMNRNTYLHWYQQKPGQAPRLLIYKVSNRFPGVPDRFSGSGSGTDFTLKISRVEAEDVGVYYCAQGTSVPFTFGQGTKLEIK
0.3 fold	H183/L072 VL T97L (antibody, name in Kabat numbering, V domains shown, Dual-Ig) VH: QVQLVESGGGLVQPGRSLRLSCAASGFTFSNAWMHWVRQAPGKGLEWVAQIKDKGNAYAAYYAPSVKGRFTISRDDSKNSIYLQMNSLKTEDTAVYYCHYVHYASASTVLPAFGVDAWGQGTTVTVSS VL: DIVMTQSPLSLPVTPGEPASISCQASQELVHMNRNTYLHWYQQKPGQAPRLLIYKVSNRFPGVPDRFSGSGSGTDFTLKISRVEAEDVGVYYCAQGTSVPFLFGQGTKLEIK
0 fold	H183/L072 VL T97P (antibody, name in Kabat numbering, V domains shown, Dual-Ig) VH: QVQLVESGGGLVQPGRSLRLSCAASGFTFSNAWMHWVRQAPGKGLEWVAQIKDKGNAYAAYYAPSVKGRFTISRDDSKNSIYLQMNSLKTEDTAVYYCHYVHYASASTVLPAFGVDAWGQGTTVTVSS VL: DIVMTQSPLSLPVTPGEPASISCQASQELVHMNRNTYLHWYQQKPGQAPRLLIYKVSNRFPGVPDRFSGSGSGTDFTLKISRVEAEDVGVYYCAQGTSVPFPFGQGTKLEIK
0.7 fold	H183/L072 VL T97Q (antibody, name in Kabat numbering, V domains shown, Dual-Ig) VH: QVQLVESGGGLVQPGRSLRLSCAASGFTFSNAWMHWVRQAPGKGLEWVAQIKDKGNAYAAYYAPSVKGRFTISRDDSKNSIYLQMNSLKTEDTAVYYCHYVHYASASTVLPAFGVDAWGQGTTVTVSS VL: DIVMTQSPLSLPVTPGEPASISCQASQELVHMNRNTYLHWYQQKPGQAPRLLIYKVSNRFPGVPDRFSGSGSGTDFTLKISRVEAEDVGVYYCAQGTSVPFQFGQGTKLEIK
0.5 fold	H183/L072 VL V27cA (antibody, name in Kabat numbering, V domains shown, Dual-Ig) VH: QVQLVESGGGLVQPGRSLRLSCAASGFTFSNAWMHWVRQAPGKGLEWVAQIKDKGNAYAAYYAPSVKGRFTISRDDSKNSIYLQMNSLKTEDTAVYYCHYVHYASASTVLPAFGVDAWGQGTTVTVSS VL: DIVMTQSPLSLPVTPGEPASISCQASQELAHMNRNTYLHWYQQKPGQAPRLLIYKVSNRFPGVPDRFSGSGSGTDFTLKISRVEAEDVGVYYCAQGTSVPFTFGQGTKLEIK
0.8 fold	H183/L072 VL T97S (antibody, name in Kabat numbering, V domains shown, Dual-Ig) VH: QVQLVESGGGLVQPGRSLRLSCAASGFTFSNAWMHWVRQAPGKGLEWVAQIKDKGNAYAAYYAPSVKGRFTISRDDSKNSIYLQMNSLKTEDTAVYYCHYVHYASASTVLPAFGVDAWGQGTTVTVSS VL: DIVMTQSPLSLPVTPGEPASISCQASQELVHMNRNTYLHWYQQKPGQAPRLLIYKVSNRFPGVPDRFSGSGSGTDFTLKISRVEAEDVGVYYCAQGTSVPFSFGQGTKLEIK
0.1 fold	H183/L072 VL T97W (antibody, name in Kabat numbering, V domains shown, Dual-Ig) VH: QVQLVESGGGLVQPGRSLRLSCAASGFTFSNAWMHWVRQAPGKGLEWVAQIKDKGNAYAAYYAPSVKGRFTISRDDSKNSIYLQMNSLKTEDTAVYYCHYVHYASASTVLPAFGVDAWGQGTTVTVSS VL: DIVMTQSPLSLPVTPGEPASISCQASQELVHMNRNTYLHWYQQKPGQAPRLLIYKVSNRFPGVPDRFSGSGSGTDFTLKISRVEAEDVGVYYCAQGTSVPFWFGQGTKLEIK
0.6 fold	H183/L072 VL T97H (antibody, name in Kabat numbering, V domains shown, Dual-Ig) VH: QVQLVESGGGLVQPGRSLRLSCAASGFTFSNAWMHWVRQAPGKGLEWVAQIKDKGNAYAAYYAPSVKGRFTISRDDSKNSIYLQMNSLKTEDTAVYYCHYVHYASASTVLPAFGVDAWGQGTTVTVSS VL: DIVMTQSPLSLPVTPGEPASISCQASQELVHMNRNTYLHWYQQKPGQAPRLLIYKVSNRFPGVPDRFSGSGSGTDFTLKISRVEAEDVGVYYCAQGTSVPFHFGQGTKLEIK
